Reference: patent US10137183B2, “Peptide compositions having 4 linked CTL epitopes and uses thereof” (TAIHO PHARMACEUTICAL CO., LTD., priority 2013, dated 2018)

Target: T1, Human 20S immunoproteasomes (Homo sapiens, UniProt P28062+P28065+P40306)
T1 construct: purchased R&D systems
Assay: Peptide cleavage with human 20S immunoproteasomes (i20S), LC/MS-MS of fragments
Type: biochemical
Conditions: 66.7 μg/mL peptide, 37° C., 1, 2 or 4 hours
Description: Cleavage samples of peptides having 4 linked epitopes were prepared in the manner described below. Specifically, peptides having 4 linked epitopes were diluted to 66.7 μg/mL with a reaction buffer (20 mM HEPES-KOH, pH 7.8, 2 mM MgAc2, 2 mM dithiothreitol), and the resultant was dispensed into reaction tubes in amounts of 300 μL per tube. Human 20S immunoproteasomes (R&D systems) were added thereto in amounts of 2 μg per tube, the mixtures were agitated, and the resultants were then subjected to incubation with shaking at 37° C. for 1, 2, or 4 hours. […]
Subsequently, the obtained cleavage samples of the peptides having 4 linked epitopes were applied to the LC/MS-MS systems (Acquity UPLC system, Waters; Synapt G2 HDMS, Waters), so as to perform comprehensive analysis of the molecular weights of the peptide fragments. With the use of analytical software (MassLynx, ver. 4.1, SCN712, Waters), the samples were analyzed, and the peptide fragments were identified. The peptides having 4 linked epitopes were evaluated to be cleavable upon development of any of a peptide in which the epitope peptide was cleaved, a peptide comprising arginine residues added to the N terminus of the epitope peptide, or a peptide comprising an arginine dimer added to the N terminus of the epitope peptide, as a result of cleavage with immunoproteasomes.

ASLDSDPWV (listed as Homo sapiens) [PEP2]
cleavage determining the C terminal amino acids of the CTL epitope peptide: required to be located at positions nearest to the C terminus

ILEQSGEWWK (listed as Homo sapiens) [PEP10]
cleavage determining the C terminal amino acids of the CTL epitope peptide: required to be located at positions nearest to the C terminus
